Measurements: the RNAGym collection of RNA variant scans (doi:10.1093/nar/gkz1192)

B1: CPEB3 Ribozyme (parent)
chain: UAACAGGGGGCCACAGCAGAAGCGUUCACGUCGCAGCCCCUGUCAGAUUCUGGUGAAUCUGCGAAUUCUGCUGUAUAUCUC

Variants of: B1
Assay: self-cleavage, relative activity (ratio to wild type); higher = more cleavage; in vitro, sequencing
Outline: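 Relative activity compares each variant's cleaved/total read fraction with that of the unmutated ribozyme. To get these fractions, barcoded CPEB3 ribozyme libraries from rounds of error-prone PCR were transcribed with T7 RNA polymerase for 5 hours at 37°C and then given 15 min of DNase I treatment before EDTA was added. The RNAs were reverse transcribed with template switching and sequenced on Illumina, and DNA sequencing linked barcodes to variants. A minimum of 5 reads applied, and three batches were averaged.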

In order of falling self-cleavage:
1. U1G A35G  1.25
2. A2C A35G  1.24
3. U1C U74C  1.21
4. U1C U74A  1.21
5. U1C C81G  1.21
6. A2C U80A  1.2
7. U1C U74G  1.19
8. U1G A47G  1.16
9. U1G U74C  1.13
10. U1C U78A  1.11
11. U1C U43A  1.1
12. U1C G73U  1.08
13. U1G U80A  1.08
14. U1C C79A  1.03
15. U1C U54A  1.03
16. A2C U76C  1.02
17. A2C G52A  1.02
18. U1G U41C  1.01
19. A2C A77G  1.01
20. A2G A3G  1.01
21. U1G  1.01
22. U1C G52A  1
23. U1C U80C  1
24. U1C U72G  1
25. U1G U72C  1
26. U1G A5U  0.98
27. U1C G53A  0.98
28. U1C U51G  0.97
29. U1G A2G  0.95
30. A2G A5C  0.94
31. U1C U78G  0.94
32. U1G A56G  0.92
33. A2C U51G  0.92
34. A2G A13U  0.91
35. A2C  0.91
36. A2C U72C  0.9
37. A2G A3C  0.89
38. U1G G53C  0.89
39. U1C U41C  0.87
40. A2C A5G  0.86
41. U1G A15G  0.84
42. U1C G63A  0.84
43. U1C U80A  0.82
44. U1G U78C  0.82
45. U1C U72C  0.82
46. U1G G63U  0.81
47. U1C U26A  0.81
48. A2G A5U  0.8
49. U1C U51A  0.8
50. U1C C79U  0.8
51. U1C U78C  0.8
52. U1C U76C  0.8
53. U1G U48C  0.79
54. U1C U76A  0.78
55. A2C A64G  0.74
56. A2G A5G  0.73
57. A2C U72A  0.72
58. U1C G53U  0.72
59. A2C U48C  0.71
60. U1G U72A  0.71
61. U1C U51C  0.7
62. A2G  0.7
63. U1C U31C  0.7
64. A2C U51A  0.7
65. A2C A15G  0.69
66. U1C U54C  0.68
67. U1C U54G  0.67
68. U1G A13G  0.66
69. U1C U72A  0.66
70. U1G U69A  0.65
71. A2C U31C  0.63
72. U1C U58C  0.63
73. U1G A18G  0.61
74. U1C U49A  0.61
75. U1C C50A  0.61
76. U1G A28C  0.6
77. U1G G8C  0.59
78. A2G A13G  0.59
79. U1C U43C  0.57
80. U1C G6C  0.56
81. A2C U26C  0.55
82. U1G A28G  0.55
83. U1G A20C  0.55
84. U1C C71U  0.54
85. A2G A15G  0.53
86. U1C U41G  0.53
87. A2C A28G  0.51
88. A2C A15U  0.5
89. A2C C39A  0.49
90. U1G C23U  0.49
91. A2C U25C  0.49
92. A2C A13G  0.49
93. A2C G61A  0.48
94. U1G C38A  0.48
95. A2G A18G  0.48
96. U1C C23U  0.47
97. U1C U69C  0.46
98. A2C A65G  0.46
99. U1C U58A  0.46
100. U1C G42A  0.45
101. U1C U69A  0.44
102. U1C G7C  0.44
103. U1G C27A  0.43
104. U1C G9A  0.43
105. A2G A18C  0.43
106. U1C U31A  0.43
107. A2C U49C  0.42
108. U1C U60A  0.42
109. U1C C23G  0.42
110. U1C U48C  0.41
111. A2G A15U  0.41
112. U1C U67A  0.4
113. U1G U26C  0.4
114. A2C U66C  0.4
115. U1C G19U  0.4
116. U1C G8U  0.39
117. U1C G9C  0.39
118. U1C U66C  0.39
119. U1C U60C  0.39
120. U1C C27U  0.38
121. U1C U26C  0.38
122. U1C C37U  0.37
123. U1C C68A  0.37
124. U1G A57C  0.37
125. U1C U49C  0.37
126. U1C U25A  0.37
127. A2C U67C  0.36
128. U1C G70C  0.35
129. U1C G8A  0.34
130. U1C C29U  0.33
131. U1C C29A  0.32
132. U1C G33A  0.32
133. U1C U25C  0.32
134. U1C C62U  0.32
135. U1C G19A  0.32
136. U1C G70U  0.32
137. U1C G24C  0.31
138. U1G U41A  0.3
139. U1C G6A  0.3
140. U1C C40U  0.3
141. U1C U67C  0.26
142. U1G A64C  0.26
143. U1C C32A  0.26
144. A2C C23U  0.25
145. U1C C68G  0.25
146. U1C C34U  0.24
147. U1C G10A  0.23
148. U1C U67G  0.22
149. U1C U25G  0.22
150. A2C G36A  0.22
151. A2C A64U  0.21
152. U1C G36A  0.21
153. A2C G9U  0.21
154. U1C U41A  0.21
155. A2C U58A  0.2
156. U1C G36C  0.2
157. U1C C38A  0.18
158. U1C C40A  0.18
159. U1C G10C  0.17
160. U1C C37A  0.16
161. U1C U48A  0.16
162. U1C G30C  0.14
163. U1G U25C  0.13
164. U1C C34A  0.12
165. A2C G8A  0.1
166. U1C G7A  0.09
167. U1C G16A  0.08
